One assay addresses HLA-B*07:02. Description: IEDB peptide-MHC binding, purified MHC/direct/fluorescence; filed as Kd, often an IC50 or EC50 that approximates it; ≥ and ≤ were set here for values at or beyond the usual limits of such assays.
The target of another assay is HLA-A*24:02. The description is as above. To be noted: source organism: Influenza A virus (A/duck/Mongolia/47/2001(H7N1)).
Another assay deals with HLA-B*27:05. The assay is described as above.
Another assay has as its target HLA-B*15:01. Described as above.
The target of the next assay is HLA-A*02:01. Described as above.
Another assay has as its target HLA-B*08:01. The assay is described as above.
The target in the next assay is HLA-B*40:01. The description is as above.
For the next assay, the target named is HLA-A*26:01. The description is as above.
The next assay addresses HLA-A*01:01. The assay is described as above.
The target in a further assay is HLA-B*46:01. The assay is described as above. The conditions noted are these: source organism: Influenza A virus (A/duck/Mongolia/47/2001(H7N1)).
A further assay addresses HLA-B*44:02. Described as above.
The next assay deals with HLA-A*03:01. Described as above.
A further assay concerns the target HLA-A*31:01. The assay is described as above.
Assay [1] has as its target HLA-B*58:01. Described as above.
For another assay, the target named is HLA-B*18:01. The description is as above. To be noted: source organism: Influenza A virus (A/duck/Mongolia/47/2001(H7N1)).
The target of another assay is HLA-B*39:01. The assay is described as above. To be noted: source organism: Influenza A virus (A/duck/Mongolia/47/2001(H7N1)).
The next assay deals with HLA-A*11:01. The assay is described as above.
Assay [2] has as its target HLA-B*58:01. Kind of assay: IEDB peptide-MHC binding, purified MHC/competitive/radioactivity; filed as Kd, often an IC50 or EC50 that approximates it; ≥ and ≤ were set here for values at or beyond the usual limits of such assays.
For the next assay, the target named is HLA-B*57:01. The description is as above.
A further assay addresses HLA-B*35:01. Description: IEDB peptide-MHC binding, purified MHC/direct/fluorescence; filed as Kd, often an IC50 or EC50 that approximates it; ≥ and ≤ were set here for values at or beyond the usual limits of such assays.
The next assay deals with HLA-A*69:01. Described as above.
Another assay has as its target HLA-A*24:03. The description is as above.
The target of another assay is HLA-A*02:50. Kind of assay: IEDB peptide-MHC binding, purified MHC/competitive/fluorescence; filed as Kd, often an IC50 or EC50 that approximates it; ≥ and ≤ were set here for values at or beyond the usual limits of such assays.
The target of a further assay is HLA-A*30:01. Kind of assay: IEDB peptide-MHC binding, purified MHC/direct/fluorescence; filed as Kd, often an IC50 or EC50 that approximates it; ≥ and ≤ were set here for values at or beyond the usual limits of such assays. The conditions noted are these: source organism: Giardia lamblia ATCC 50803.
For the next assay, the target named is HLA-B*51:01. The description is as above. To be noted: source organism: Tetraodon nigroviridis.
Setting [3] is: source organism: Influenza A virus (A/duck/Mongolia/47/2001(H7N1)).
The mark [4] stands for this setting: source organism: Dengue virus 1 Brazil/97-11/1997.
The mark [5] stands for this setting: source organism: Vibrio parahaemolyticus.
[6] abbreviates: source organism: Camelpox virus M-96.
[7] abbreviates: source organism: Yersinia pestis.
Where [8] appears, read: source organism: Escherichia coli O157:H7.
[9] abbreviates: source organism: Giardia lamblia ATCC 50803.
[10] abbreviates: source organism: Brucella melitensis.
The mark [11] stands for this setting: source organism: Dengue virus 2 Peru/IQT2913/1996.
Setting [12] is: source organism: Salmonella enterica.
Setting [13] is: source organism: Rickettsia typhi.

In the case of THFQRKRRV, the Kd with HLA-B*07:02 (setting [3]), in the assay with HLA-A*24:02, with HLA-B*27:05 (setting [3]), with HLA-B*15:01 (setting [3]), with HLA-A*02:01 (setting [3]) and in the assay with HLA-B*08:01 (setting [3]) was at least 20 µM in each case. Besides, the Kd in the assay with HLA-B*40:01 (setting [3]), with HLA-A*26:01 (source organism: Influenza A virus(A/swine/Henan/3/2004(H9N2))), in the assay with HLA-A*01:01 (setting [3]), with HLA-B*46:01, in the assay with HLA-B*44:02 (setting [3]) and with HLA-A*03:01 (setting [3]) was at least 20 µM each time. Besides, the Kd with HLA-A*31:01 (setting [3]), with HLA-B*58:01 [1] (setting [3]), with HLA-B*18:01, with HLA-B*39:01 and with HLA-A*11:01 (setting [3]) was at least 20 µM in each case.
As for LAIPVTMTL, the equilibrium dissociation constant (Kd) (in general, the constant that tells how readily two partners part at equilibrium) with HLA-B*58:01 [2] (source organism: Dengue virus 4 Philippines/H241/1956) worked out at 0.00134 µM.
Regarding LGSQEGAMHT, the Kd in the assay with HLA-B*58:01 [2] (source organism: Dengue virus 2 Jamaica/1409/1983) stood at 0.548 µM.
As for ATLFVWYFW, the Kd is 0.115 µM with HLA-B*57:01 (setting [4]) and 0.2 µM with HLA-B*58:01 [2] (setting [4]).
For MSSAMSMMH, the Kd with HLA-B*07:02 (setting [5]) was at least 20 µM; in the assay with HLA-B*27:05 (setting [5]) it was at least 20 µM; with HLA-B*15:01 (setting [5]), 2.58 µM; in the assay with HLA-A*02:01 (setting [5]) it was at least 20 µM; in the assay with HLA-B*35:01 (setting [5]), 0.0728 µM; in the assay with HLA-B*08:01 (setting [5]), at least 20 µM. The Kd with HLA-B*40:01 (setting [5]) was at least 20 µM; with HLA-A*69:01 (setting [5]) it was at least 20 µM; with HLA-A*26:01 (setting [5]), at least 20 µM; with HLA-A*01:01 (setting [5]), 6.94 µM; with HLA-B*44:02 (setting [5]), at least 20 µM; in the assay with HLA-A*03:01 (setting [5]), 0.0661 µM. Further, the Kd with HLA-B*58:01 [1] (setting [5]) came to 0.624 µM; with HLA-A*24:03 (setting [5]), 5.11 µM; with HLA-A*11:01 (setting [5]), 0.154 µM.
VMCIQMKYV: the Kd with HLA-B*07:02 (setting [6]), in the assay with HLA-B*27:05 (setting [6]), with HLA-B*15:01 (setting [6]), with HLA-A*02:01 (setting [6]), in the assay with HLA-B*08:01 (setting [6]) and with HLA-B*40:01 (setting [6]) was at least 20 µM in each case. Besides, the dissociation constant Kd with HLA-A*26:01 (setting [6]), in the assay with HLA-A*01:01 (setting [6]), in the assay with HLA-B*44:02 (setting [6]), with HLA-A*03:01 (setting [6]), with HLA-A*31:01 (setting [6]) and with HLA-B*58:01 [1] (setting [6]) was at least 20 µM each time. For the same sequence, the Kd with HLA-A*24:03 (setting [6]) is at least 20 µM; with HLA-A*11:01 (setting [6]), at least 20 µM; in the assay with HLA-A*02:50 (source organism: Variola virus), 0.0181 µM.
As for GMFIIFIPI, the Kd with HLA-A*02:01 (setting [7]) was determined as 8.84 µM; with HLA-A*69:01 (setting [7]), 5.42 µM; with HLA-A*02:50 (source organism: Yersinia pestis Nepal516), 0.395 µM.
For RPPRRGDKF, the Kd is 0.223 µM with HLA-B*07:02 (setting [8]); at least 20 µM with HLA-B*27:05 (setting [8]); at least 20 µM with HLA-B*15:01 (setting [8]); at least 20 µM with HLA-A*02:01 (setting [8]); 1.37 µM in the assay with HLA-B*35:01 (setting [8]); at least 20 µM with HLA-B*40:01 (setting [8]). The Kd in the assay with HLA-A*69:01 (setting [8]), in the assay with HLA-A*26:01 (setting [8]), in the assay with HLA-A*01:01 (setting [8]), with HLA-B*44:02 (setting [8]), with HLA-A*03:01 (setting [8]) and with HLA-A*31:01 (setting [8]) was at least 20 µM in each case. Moreover, the Kd with HLA-B*58:01 [1] (setting [8]) and with HLA-A*11:01 (setting [8]) was at least 20 µM in each case.
Take SVKERGPAY: the dissociation constant (Kd) with HLA-B*07:02 (setting [9]) was at least 20 µM; with HLA-B*27:05 (setting [9]) it was at least 20 µM; with HLA-B*15:01 (setting [9]), 0.179 µM; with HLA-A*02:01 (setting [9]) it was at least 20 µM; with HLA-B*35:01 (setting [9]) it was 0.0394 µM; with HLA-B*08:01 (setting [9]), at least 20 µM. The Kd is at least 20 µM with HLA-B*40:01 (setting [9]); at least 20 µM with HLA-A*69:01 (setting [9]); 0.0246 µM with HLA-A*26:01 (setting [9]); at least 20 µM in the assay with HLA-A*01:01 (setting [9]); at least 20 µM in the assay with HLA-B*44:02 (setting [9]); 0.61 µM in the assay with HLA-A*03:01 (setting [9]). Moreover, the Kd with HLA-A*31:01 (setting [9]) was at least 20 µM; in the assay with HLA-B*58:01 [1] (setting [9]), at least 20 µM; with HLA-A*30:01, 0.0354 µM; in the assay with HLA-A*11:01 (setting [9]), 0.105 µM.
Consider WMDMWESPM, for which the Kd in the assay with HLA-A*02:01 (setting [8]) stood at 1.01 µM; in the assay with HLA-A*02:50 (source organism: Escherichia coli O157:H7 str. Sakai) it was 0.0004 µM.
Take ALFEDYPGC: the Kd is at least 20 µM in the assay with HLA-B*07:02 (setting [10]); at least 20 µM with HLA-B*27:05 (setting [10]); at least 20 µM with HLA-B*15:01 (setting [10]); 0.354 µM with HLA-A*02:01 (setting [10]); at least 20 µM with HLA-B*08:01 (setting [10]); at least 20 µM with HLA-B*40:01 (setting [10]). Besides, the Kd in the assay with HLA-A*69:01 (setting [10]), in the assay with HLA-A*26:01 (setting [10]), with HLA-A*01:01 (setting [10]), with HLA-B*44:02 (setting [10]), with HLA-A*03:01 (setting [10]) and with HLA-A*31:01 (setting [10]) was at least 20 µM in each case. Moreover, the Kd is at least 20 µM in the assay with HLA-B*58:01 [1] (setting [10]), at least 20 µM with HLA-A*24:03 (setting [10]), at least 20 µM in the assay with HLA-A*11:01 (setting [10]) and 0.0062 µM with HLA-A*02:50 (setting [10]).
As to LTSKELMMTT, the figures for the Kd with HLA-B*57:01 (setting [11]) and with HLA-B*58:01 [2] (setting [11]) were 0.246 µM and 0.422 µM, respectively.
For ATGDYVAFV, the results for the Kd in the assay with HLA-A*02:01 (setting [12]), with HLA-A*69:01 (setting [12]) and with HLA-A*02:50 (source organism: Salmonella enterica subsp. enterica serovar Typhi) were 0.067 µM, 0.0158 µM and 0.0009 µM, respectively.
In the assay with HLA-B*51:01, LPAQGLIEF showed a Kd of 11.3 µM.
On to APILVVSGI, for which the Kd is 0.157 µM with HLA-B*07:02 (setting [13]); at least 20 µM with HLA-B*27:05 (setting [13]); at least 20 µM in the assay with HLA-B*15:01 (setting [13]); at least 20 µM in the assay with HLA-A*02:01 (setting [13]); 0.289 µM with HLA-B*35:01 (setting [13]); at least 20 µM with HLA-B*08:01 (setting [13]). The Kd in the assay with HLA-B*40:01 (setting [13]), in the assay with HLA-A*69:01 (setting [13]), with HLA-A*26:01 (setting [13]), in the assay with HLA-A*01:01 (setting [13]), with HLA-B*44:02 (setting [13]) and with HLA-A*03:01 (setting [13]) was at least 20 µM in each case. The Kd with HLA-A*31:01 (setting [13]) is at least 20 µM; with HLA-B*58:01 [1] (setting [13]), at least 20 µM; in the assay with HLA-A*24:03 (setting [13]), 14.8 µM; in the assay with HLA-A*11:01 (setting [13]) it was at least 20 µM.

The record behind these values is the Immune Epitope Database (IEDB).
